Patent US20140087995A1 (published 2014)
Numbered stars: 1 amine (or outer) side, 2 acyl side, 3 side chain; on linkers, the order of the positions; unused ones are H or OH. Bridge positions count the residues as written; N and C are the ends. * marks the point of attachment. C20 diacid = O=C(O)CCCCCCCCCCCCCCCCCCC(=O)*; γGlu = O=C(O)[C@H](CCC(=O)[*:2])N[*:1]

T1: rat amylin receptor (rat calcitonin receptor + rat RAMP 3) (rat, UniProt P32214 25-516; Q9JJ73 23-147)
T1 construct: whole, on cells; Membranes of BHK tk'ts 13 cells transiently transfected with the rat calcitonin receptor and rat RAMP 3; also called rAmylin-R; rat amylin 3(a) receptor
T1 sequence (looked up) 1: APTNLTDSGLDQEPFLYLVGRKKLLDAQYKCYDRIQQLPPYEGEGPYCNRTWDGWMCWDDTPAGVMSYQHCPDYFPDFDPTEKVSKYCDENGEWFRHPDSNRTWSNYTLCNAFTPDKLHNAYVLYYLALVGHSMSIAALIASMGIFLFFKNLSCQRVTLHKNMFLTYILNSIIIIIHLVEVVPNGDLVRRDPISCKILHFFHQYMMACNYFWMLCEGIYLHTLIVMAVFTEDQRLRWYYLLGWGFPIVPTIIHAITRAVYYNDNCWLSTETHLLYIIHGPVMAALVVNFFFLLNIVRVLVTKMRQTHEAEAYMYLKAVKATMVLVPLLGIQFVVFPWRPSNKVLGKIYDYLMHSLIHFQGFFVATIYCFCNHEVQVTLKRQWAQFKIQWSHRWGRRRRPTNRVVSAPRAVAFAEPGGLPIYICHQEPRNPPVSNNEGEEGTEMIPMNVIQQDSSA
T1 sequence (looked up) 2: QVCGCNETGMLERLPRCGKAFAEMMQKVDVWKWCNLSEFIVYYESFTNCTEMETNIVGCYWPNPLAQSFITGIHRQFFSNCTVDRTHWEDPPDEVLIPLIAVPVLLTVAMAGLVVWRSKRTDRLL

T2: human calcitonin receptor (human, UniProt P30988 25-474)
T2 construct: whole, on cells; Membranes of a BHK tk'ts 13 cell line stably transfected with the human calcitonin receptor; also called hCTR; hCT
T2 sequence (looked up): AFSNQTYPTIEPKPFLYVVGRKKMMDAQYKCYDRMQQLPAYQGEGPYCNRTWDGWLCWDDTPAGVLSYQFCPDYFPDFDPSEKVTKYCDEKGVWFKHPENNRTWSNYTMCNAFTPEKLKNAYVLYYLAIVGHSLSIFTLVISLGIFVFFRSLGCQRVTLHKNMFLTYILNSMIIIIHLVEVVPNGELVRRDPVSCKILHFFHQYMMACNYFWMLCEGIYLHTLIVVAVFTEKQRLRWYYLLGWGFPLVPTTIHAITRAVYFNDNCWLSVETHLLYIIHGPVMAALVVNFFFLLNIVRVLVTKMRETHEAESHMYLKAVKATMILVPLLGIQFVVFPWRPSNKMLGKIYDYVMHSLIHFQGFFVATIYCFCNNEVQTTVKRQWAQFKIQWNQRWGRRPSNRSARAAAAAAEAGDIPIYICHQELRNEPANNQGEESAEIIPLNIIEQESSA

T3: rat calcitonin receptor (rat, UniProt P32214 25-516)
T3 construct: whole, on cells; Membranes of BHK tk'ts 13 cells transiently transfected with the rat calcitonin receptor; also called rCTR; rat calcitonin (a) receptor
T3 sequence (looked up): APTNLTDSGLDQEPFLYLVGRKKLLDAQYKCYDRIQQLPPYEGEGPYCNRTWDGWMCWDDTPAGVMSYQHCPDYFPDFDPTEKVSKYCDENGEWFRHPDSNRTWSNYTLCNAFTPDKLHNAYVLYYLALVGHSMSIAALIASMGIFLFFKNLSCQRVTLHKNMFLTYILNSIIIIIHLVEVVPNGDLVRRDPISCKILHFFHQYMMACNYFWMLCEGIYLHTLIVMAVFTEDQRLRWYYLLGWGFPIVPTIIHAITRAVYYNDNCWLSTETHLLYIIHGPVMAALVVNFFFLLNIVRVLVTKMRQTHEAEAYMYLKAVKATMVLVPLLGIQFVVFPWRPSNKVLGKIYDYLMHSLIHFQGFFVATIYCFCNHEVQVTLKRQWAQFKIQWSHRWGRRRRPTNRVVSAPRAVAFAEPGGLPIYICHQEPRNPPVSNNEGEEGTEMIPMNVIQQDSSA


Tests used:
[1] = target: T1, rat amylin receptor (rat calcitonin …); assay: SPA competition vs 125I-rat amylin, membranes with rat CTR + rat RAMP3 (Assay VI)
Protocol: The binding assay was performed using scintillation proximity assay (SPA) beads (RPNQ0001) from PerkinElmer and cell membranes from the Amylin 3(a)/CRE-luc cells (as described in Assay (II)) were used. Membranes were prepared in the following way; the cells were rinsed with PBS and incubated with Versene for approximately 5 min before harvesting. The cells were flushed with PBS and the cell-suspension was centrifuged for 5 min at 1000 rpm. Cells were homogenized (ultrathurrax) in a buffer containing 20 mM Na-HEPES and 10 mM EDTA (pH 7.4) and centrifuged at 20.000 rpm for 15 min. The resulting pellet was resuspended, homogenized and centrifuged (20.000 rpm, 15 min) in a buffer containing 20 mM Na-HEPES and 0.1 mM EDTA (pH 7.4, buffer 2). The resulting pellet was resuspended in buffer 2 and protein concentration was measured (BCA protein Assay, Pierce). The homogenate was kept cold during the whole procedure. The membranes were kept at −80° C. until use. The assay was performed in a 384 well Optiplate (PerkinElmer) in a total volume of 40 ul. Membranes were mixed with SPA beads. Final concentration of membranes 35 ng/μL final and SPA beads was 0.05 mg/well. Test-compounds were dissolved in DMSO and further diluted in assay buffer (50 mM Hepes, pH 7.4, 1 mM CaCl2, 5 mM MgCl₂, 0.1% OA and 0.02% Tween20). […] The final mixture was incubated with shaking at 400 rpm for 120 min at 25° C. prior to centrifugation (1500 rpm, 10 min). Samples were analyzed on TopCounter™ (Packard). The IC₅₀ was calculated using (one site binding competition analysis) GraphPad Prism5 as a measure of receptor affinity.
Cells were grown in DMEM with 10% FBS and 1% Pen/Strep. Approximately 48 hours after transfection, the cells were harvested and membranes were prepared.

[2] = target: T2, human calcitonin receptor; assay: IC50 at hCTR divided by IC50 at hAmylin-R (reference)
Protocol: The resulting pellet was resuspended, homogenized and centrifuged (20.000 rpm, 15 min) in a buffer containing 20 mM Na-HEPES and 0.1 mM EDTA (pH 7.4, buffer 2). The resulting pellet was resuspended in buffer 2 and protein concentration was measured (BCA protein Assay, Pierce). The homogenate was kept cold during the whole procedure. The membranes were kept at −80° C. until use. The assay was performed in a 384 well Optiplate (PerkinElmer) in a total volume of 40 ul. Membranes were mixed with SPA beads. Final concentration of membranes 35 ng/μL final and SPA beads was 0.05 mg/well. Test-compounds were dissolved in DMSO and further diluted in assay buffer (50 mM Hepes, pH 7.4, 1 mM CaCl2, 5 mM MgCl₂, 0.1% OA and 0.02% Tween20). […] The final mixture was incubated with shaking at 400 rpm for 120 min at 25° C. prior to centrifugation (1500 rpm, 10 min). Samples were analyzed on TopCounter™ (Packard). The IC₅₀ was calculated using (one site binding competition analysis) GraphPad Prism5 as a measure of receptor affinity.
Membranes were prepared in the following way; the cells were rinsed with PBS and incubated with Versene for approximately 5 min before harvesting. The cells were flushed with PBS and the cell-suspension was centrifuged for 5 min at 1000 rpm. Cells were homogenized (Ultrathurrax) in a buffer containing 20 mM Na-HEPES and 10 mM EDTA (pH 7.4) and centrifuged at 20.000 rpm for 15 min. The resulting pellet was resuspended, homogenized and centrifuged (20.000 rpm, 15 min) in a buffer containing 20 mM Na-HEPES and 0.1 mM EDTA (pH 7.4, buffer 2). The resulting pellet was resuspended in buffer 2 and protein concentration was measured (BCA protein Assay, Pierce). The homogenate was kept cold during the whole procedure. The membranes were kept at −80° C. until use. Assay was performed in a 384 well Optiplate (PerkinElmer) in a total volume of 40 ul. Membranes were mixed with SPA beads.

[3] = target: T3, rat calcitonin receptor; assay: SPA competition vs 125I-calcitonin, membranes with rat CTR (Assay VIII)
[4] = target: T3, rat calcitonin receptor; assay: IC50 at rCTR divided by IC50 at rAmylin-R (reference)

Binder	IC50 [1]	Ratio hCT/hAmylin binding [2]	IC50 [3]	Ratio rCT/rAmylin binding [4]
KCNTATCATQRLAEFLRHSSPNFGAIPSSTNVGSNTY (C20 diacid-gGlu-2xOEG on the alpha amino group of the N-terminal residue (Lys 1); disulfide bridge Cys2-Cys7; C-terminal amide, modifications are with respect to human amylin; also called compound 19)	1.02 nM	36.7	95.6 nM	93.6
{C20 diacid-γGlu}-KCNTATCATQRLANFLRHSSPNFGAIPSSTNVGPETY-NH2 (disulfide 2-7; SMILES CC[C@H](C)[C@H](NC(=O)[C@H](C)NC(=O)CNC(=O)[C@H](Cc1ccccc1)NC(=O)[C@H](CC(N)=O)NC(=O)[C@@H]1CCCN1C(=O)[C@H](CO)NC(=O)[C@H](CO)NC(=O)[C@H](Cc1c[nH]cn1)NC(=O)[C@H](CCCNC(=N)N)NC(=O)[C@H](CC(C)C)NC(=O)[C@H](Cc1ccccc1)NC(=O)[C@H](CC(N)=O)NC(=O)[C@H](C)NC(=O)[C@H](CC(C)C)NC(=O)[C@H](CCCNC(=N)N)NC(=O)[C@H](CCC(N)=O)NC(=O)[C@@H](NC(=O)[C@H](C)NC(=O)[C@@H]1CSSC[C@H](NC(=O)[C@H](CCCCN)NC(=O)CC[C@H](NC(=O)CCCCCCCCCCCCCCCCCCC(=O)O)C(=O)O)C(=O)N[C@@H](CC(N)=O)C(=O)N[C@@H]([C@@H](C)O)C(=O)N[C@@H](C)C(=O)N[C@@H]([C@@H](C)O)C(=O)N1)[C@@H](C)O)C(=O)N1CCC[C@H]1C(=O)N[C@@H](CO)C(=O)N[C@@H](CO)C(=O)N[C@H](C(=O)N[C@@H](CC(N)=O)C(=O)N[C@H](C(=O)NCC(=O)N1CCC[C@H]1C(=O)N[C@@H](CCC(=O)O)C(=O)N[C@H](C(=O)N[C@@H](Cc1ccc(O)cc1)C(N)=O)[C@@H](C)O)C(C)C)[C@@H](C)O, modifications are with respect to human amylin; also called compound 29)	0.322 nM	13.9	21.6 nM	67
KCNTATCATQRLANFLRHSSPNFGAIPSSTNVGSETY (C20 diacid-gGlu on the alpha amino group of the N-terminal residue (Lys 1); disulfide bridge Cys2-Cys7; C-terminal amide, modifications are with respect to human amylin; also called compound 23) [N^α1-[(4S)-4-carboxy-4-(19-carboxynonadecanoylamino)butanoyl]-[Arg17,Pro21,Pro27,Glu35]-h-amylin]	1.12 nM	25	79.9 nM	71.3
KCNTATCATQRLANFLRHSSPNFGAIPSSTNVGHNTY (C20 diacid-gGlu on the alpha amino group of the N-terminal residue (Lys 1); disulfide bridge Cys2-Cys7; C-terminal amide, modifications are with respect to human amylin; also called compound 40) [N^α1-[(4S)-4-carboxy-4-(19-carboxynonadecanoylamino)butanoyl]-[Arg17,Pro21,Pro27,His34]-h-amylin]	1.5 nM	31.1	69.2 nM	46.2

Other lines, results leading:

IC50 [1]	Ratio hCT/hAmylin binding [2]	IC50 [3]	Ratio rCT/rAmylin binding [4]	Binder
1.22 nM	20.5	54.9 nM	44.9	{C20 diacid-γGlu}-KCNTATCATQRLANFLRHSSPNFGAIPSSTPVGSETY-NH2 (disulfide 2-7; SMILES CC[C@H](C)[C@H](NC(=O)[C@H](C)NC(=O)CNC(=O)[C@H](Cc1ccccc1)NC(=O)[C@H](CC(N)=O)NC(=O)[C@@H]1CCCN1C(=O)[C@H](CO)NC(=O)[C@H](CO)NC(=O)[C@H](Cc1c[nH]cn1)NC(=O)[C@H](CCCNC(=N)N)NC(=O)[C@H](CC(C)C)NC(=O)[C@H](Cc1ccccc1)NC(=O)[C@H](CC(N)=O)NC(=O)[C@H](C)NC(=O)[C@H](CC(C)C)NC(=O)[C@H](CCCNC(=N)N)NC(=O)[C@H](CCC(N)=O)NC(=O)[C@@H](NC(=O)[C@H](C)NC(=O)[C@@H]1CSSC[C@H](NC(=O)[C@H](CCCCN)NC(=O)CC[C@H](NC(=O)CCCCCCCCCCCCCCCCCCC(=O)O)C(=O)O)C(=O)N[C@@H](CC(N)=O)C(=O)N[C@@H]([C@@H](C)O)C(=O)N[C@@H](C)C(=O)N[C@@H]([C@@H](C)O)C(=O)N1)[C@@H](C)O)C(=O)N1CCC[C@H]1C(=O)N[C@@H](CO)C(=O)N[C@@H](CO)C(=O)N[C@H](C(=O)N1CCC[C@H]1C(=O)N[C@H](C(=O)NCC(=O)N[C@@H](CO)C(=O)N[C@@H](CCC(=O)O)C(=O)N[C@H](C(=O)N[C@@H](Cc1ccc(O)cc1)C(N)=O)[C@@H](C)O)C(C)C)[C@@H](C)O, modifications are with respect to human amylin; also called compound 28)
1.72 nM	64.4	89.2 nM	52	KCNTATCATQRLANFLRHSSPNFGAIPSSTNVGSKTY (C20 diacid-gGlu on the alpha amino group of the N-terminal residue (Lys 1); disulfide bridge Cys2-Cys7; C-terminal amide, modifications are with respect to human amylin; also called compound 34) [N^α1-[(4S)-4-carboxy-4-(19-carboxynonadecanoylamino)butanoyl]-[Arg17,Pro21,Pro27,Lys35]-h-amylin]
1.77 nM	29	96.4 nM	54.5	KCNTATCATQRLANFLRHSSPNFGAIPSSTNVGRNTY (C20 diacid-gGlu on the alpha amino group of the N-terminal residue (Lys 1); disulfide bridge Cys2-Cys7; C-terminal amide, modifications are with respect to human amylin; also called compound 39) [N^α1-[(4S)-4-carboxy-4-(19-carboxynonadecanoylamino)butanoyl]-[Arg17,Pro21,Pro27,Arg34]-h-amylin]
